Data set [1] relates to T1, CN19.
T1 sequence: KRPPKLGQIGRSKRVVIED

The subject of data set [2] is T2, CN19 S12A.
T2 sequence: KRPPKLGQIGRAKRVVIED

Data set [3] deals with CN21c.
Data set [4] concerns CaM-KIIN.
In data set [5] the test system is CN21b.

Sequence of CaMKII (chain): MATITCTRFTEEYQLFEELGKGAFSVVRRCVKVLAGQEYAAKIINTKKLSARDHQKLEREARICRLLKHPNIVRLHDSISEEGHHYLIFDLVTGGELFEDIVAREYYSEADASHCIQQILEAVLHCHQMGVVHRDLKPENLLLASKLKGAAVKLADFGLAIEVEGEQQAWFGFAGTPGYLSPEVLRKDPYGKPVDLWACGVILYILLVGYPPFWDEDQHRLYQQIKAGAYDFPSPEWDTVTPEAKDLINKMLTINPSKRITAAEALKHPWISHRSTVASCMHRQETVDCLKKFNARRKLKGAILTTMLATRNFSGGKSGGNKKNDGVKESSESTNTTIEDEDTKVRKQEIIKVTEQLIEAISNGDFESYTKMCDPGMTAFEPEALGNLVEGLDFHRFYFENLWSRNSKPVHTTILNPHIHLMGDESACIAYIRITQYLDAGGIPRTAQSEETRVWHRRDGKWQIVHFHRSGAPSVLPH

In the case of PKC, the “phosphorylation rate by PKC relative to a MARCKS peptide substrate” value in data set [1] is given as “with a phosphorylation rate of >50% compared to a peptide derived from a major PKC substrate protein”. Moreover, the “phosphate incorporation by PKC” value in data set [2] is recorded as “CN19 but not its S12A mutant was phosphorylated by PKC”.
With CaMKII, the “AC2 substrate phosphorylation by CaMKII” value in data set [3] was “The other 21mer peptides, CN21b and CN21c, had minimal or no effect”; in data set [5] it was “The other 21mer peptides, CN21b and CN21c, had minimal or no effect”. In data set [3], the “MAP2 phosphorylation by CaMKII (Western), 5 µM peptide” value was “Only CN21c failed to block MAP2 phosphorylation”. Also, in data set [4], the “CaMKII substrate- and auto-phosphorylation (Western)” value was “CaM-KIIN and CN21 block substrate- and T305 but not T286 auto-phosphorylation”.
